Drawing on US20120027677A1, this text covers LU and ave (RLU), Nomal BH for two substances.

In assay [1] the target is PrP^C, nonpathogenic (cellular) form of the human prion protein (in normal human brain homogenate and human plasma) (human) (UniProt P04156).
Assay [2] has the same target. This is another data set of the same source.

mAb SAF32 (antibody): in assay [1], the LU was 888 LU.
Regarding 3F4 antibody, the ave (RLU), Nomal BH in assay [2] worked out at 14.6 RLU.
